Measurements reported in the supplement of paper PMC10724198.

Key:
Saccharomyces cerevisiae [1] = assay: protein stability index of tFT-peptide fusion in wild type (PSI (0-1 scale)); higher = more stable (slower turnover); conditions: genetic background: wild type
Procedure: (§1)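 MPS profiling in S. cerevisiae of two library types built from selected 12-aa C-degron peptides (IN1, IN2, LN1, LN3, VN2, R1-R5, W1-W3, Atg1 and Rpa12 C-termini): saturation mutagenesis libraries and C-terminal +1 capping libraries (13 aa). Each peptide is fused to the C-terminus of a sfGFP-mCherry timer, after a GGGS linker. Cells are FACS-sorted into 8 mCherry/sfGFP bins and sequenced. PSI runs from 0 (unstable) to 1 (stable), measured once in wild type and in the das1Δ or doa10Δ background.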

Saccharomyces cerevisiae [2] = assay: protein stability index of tFT-peptide fusion in deletion strain of DAS1 (PSI (0-1 scale)); higher = more stable (slower turnover)
Procedure: as §1
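Wherever protein stability index of tFT-peptide fusion in deletion strain of DAS1 is given: PSI is a weighted mean of each variant's read distribution over the sorted stability bins, computed only for variants having over 10 reads in total.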
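Wherever protein stability index of tFT-peptide fusion in wild type is given: PSI derived as read-weighted mean over the 8 sorting bins, only variants exceeding 10 total reads kept, mCherry placed adjacent to the peptide and sfGFP distal.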

Sequence | protein stability index (Saccharomyces cerevisiae [1]) | protein stability index (Saccharomyces cerevisiae [2])
ARWRVGLWRHAS | 0.0927 | 0.688
KKHYKGQKQKIN | 0.0621 | 0.618
RLEQPLPVQFLN | 0.0758 | 0.574
PDYRNHLIKLLN | 0.0727 | 0.607
ARWRVGLWRGAM | 0.531 | 0.702
ARWRVGLWRNAS | 0.11 | 0.693
LKILRQKENHQN | 0.365 | 0.681
RLIQPHPVQFLN | 0.0682 | 0.776
LKILRQKMNHQNF | 0.616 | 0.698
VRGAVGGWRLMG | 0.177 | 0.66
PDFRNHLIKLLN | 0.112 | 0.619
VRGAVGGWRYVG | 0.157 | 0.686
TTSCGYKFRTNN | 0.255 | 0.677
ARWRRGLWRGAS | 0.55 | 0.692
PDKRNHFIKLLN | 0.102 | 0.603
ARWCVGLWRGAS | 0.357 | 0.7
LVVYLSCVACVN | 0.0169 | 0.0193
KKHKNGQKQKIN | 0.145 | 0.622
RLIQFLPVQFLN | 0.00974 | 0.539
FSMRWTFRHWVN | 0.0837 | 0.625
VRPAVGGWRLVG | 0.106 | 0.68
FSCRWTFRYWVN | 0.065 | 0.51
PDKREHLIKLLN | 0.158 | 0.716
RLIQPLPVQFLI | 0.0642 | 0.537

Sequence | protein stability index (Saccharomyces cerevisiae [1]) | protein stability index (Saccharomyces cerevisiae [2])
PSLAESFWRVVG | 0.482 | 0.685
KLIQPLPVQFLN | 0.0526 | 0.574
ILIQPLPVQFLN | 0.093 | 0.59
DVVYLSCVACIN | 0.0164 | 0.0312
LKILRQKMNHQA | 0.19 | 0.629
ARWRVDLWRGAS | 0.214 | 0.728
PDKRKHLIKLLN | 0.171 | 0.583
FSMRWTFRYWQN | 0.106 | 0.614
CTECGYKFRTNN | 0.357 | 0.678
LVVYLSMVACIN | 0.0159 | 0.0257
CTSCGYKFRTNNS | 0.683 | 0.7
KKHKKGQKQKINH | 0.653 | 0.668
RDIQPLPVQFLN | 0.0918 | 0.596
EDKRNHLIKLLN | 0.078 | 0.599
LVVYKSCVACIN | 0.218 | 0.415
VRGAWGGWRLVG | 0.147 | 0.692
CTSCSYKFRTNN | 0.267 | 0.686
PSPAASFWRVVG | 0.115 | 0.69
LKILYQKMNHQN | 0.259 | 0.679
LKILREKMNHQN | 0.183 | 0.678
YRWRVGLWRGAS | 0.223 | 0.66
ISLAASFWRVVG | 0.109 | 0.663
FSMRWTFSYWVN | 0.0568 | 0.497
CTSMGYKFRTNN | 0.148 | 0.689

Sequence | protein stability index (Saccharomyces cerevisiae [1]) | protein stability index (Saccharomyces cerevisiae [2])
RLIQPLPVQFDN | 0.668 | 0.624
FSMRWTFRYWVL | 0.0913 | 0.457
LKILHQKMNHQN | 0.293 | 0.645
WSLAASFWRVVG | 0.116 | 0.668
VRGAVGHWRLVG | 0.157 | 0.678
FSMRWYFRYWVN | 0.059 | 0.526
VRGAVGGWRLCG | 0.239 | 0.676
PSLAASFRRVVG | 0.665 | 0.656
RLIMPLPVQFLN | 0.0368 | 0.572
ARWRVGLWRGAW | 0.68 | 0.686
LKDLRQKMNHQN | 0.192 | 0.671
RNIQPLPVQFLN | 0.0759 | 0.61
VDGAVGGWRLVG | 0.155 | 0.685
PDKRNHLIKLLNS | 0.117 | 0.669
PDKYNHLIKLLN | 0.0777 | 0.59
AVWRVGLWRGAS | 0.409 | 0.678
CTSCGYKSRTNN | 0.673 | 0.703
CTSCGYKFRTNG | 0.399 | 0.685
PSLAASFWRVVR | 0.688 | 0.685
KKHKHGQKQKIN | 0.0725 | 0.637
RLILPLPVQFLN | 0.0596 | 0.589
KKHKKGQDQKIN | 0.616 | 0.574
PDKRNHLIKLNN | 0.447 | 0.598
PSLAASFWRVGG | 0.676 | 0.677

Sequence | protein stability index (Saccharomyces cerevisiae [1]) | protein stability index (Saccharomyces cerevisiae [2])
REIQPLPVQFLN | 0.121 | 0.61
KKHKKGQKQKIND | 0.666 | 0.658
RRWRVGLWRGAS | 0.389 | 0.684
FVMRWTFRYWVN | 0.0377 | 0.272
KRWRVGLWRGAS | 0.443 | 0.681
PDKRNHLKKLLN | 0.101 | 0.616
CDKRNHLIKLLN | 0.153 | 0.589
FTSCGYKFRTNN | 0.207 | 0.676
RLKQPLPVQFLN | 0.181 | 0.559
KKYKKGQKQKIN | 0.0672 | 0.613
FSMRWTFRYWVA | 0.202 | 0.545
PDKRNHCIKLLN | 0.148 | 0.585
LKILRQMMNHQN | 0.176 | 0.692
PDMRNHLIKLLN | 0.0863 | 0.757
CTSCGYKFRTNNW | 0.705 | 0.716
VRGAVGGWRLVQ | 0.24 | 0.684
ISMRWTFRYWVN | 0.059 | 0.481
ARWRKGLWRGAS | 0.657 | 0.697
ARHRVGLWRGAS | 0.603 | 0.689
RLIQPLPVQFRN | 0.533 | 0.609
PKHKKGQKQKIN | 0.0768 | 0.747
PSLAASFARVVG | 0.622 | 0.684
CTSCGDKFRTNN | 0.48 | 0.696
PSHAASFWRVVG | 0.163 | 0.697

Sequence | protein stability index (Saccharomyces cerevisiae [1]) | protein stability index (Saccharomyces cerevisiae [2])
PDKRNHLIKLLNW | 0.571 | 0.684
CTSCGYKFRENN | 0.691 | 0.693
RLIQPLPVQFVN | 0.0426 | 0.598
VRGAVGGWRLWG | 0.534 | 0.717
KIHKKGQKQKIN | 0.0466 | 0.494
RLIFPLPVQFLN | 0.0304 | 0.553
LKILRQKMNHQS | 0.23 | 0.68
PSLAASFWRVVGL | 0.683 | 0.713
KKHKEGQKQKIN | 0.12 | 0.581
CTSCGYKFMTNN | 0.477 | 0.676
PSLALSFWRVVG | 0.183 | 0.669
CTSCGYKFETNN | 0.656 | 0.707
VRCAVGGWRLVG | 0.126 | 0.716
RLIQPLPFQFLN | 0.0405 | 0.624
LVVYESCVACIN | 0.343 | 0.402
PDKRNHLIKLDN | 0.602 | 0.613
QKHKKGQKQKIN | 0.0918 | 0.676
LKILRQKMNHRN | 0.493 | 0.653
RLIQPLPVWFLN | 0.0563 | 0.609
CPSCGYKFRTNN | 0.361 | 0.754
LVVYLSYVACIN | 0.097 | 0.142
